Laboratory results taken from patent publication US20210309759A1 (SUNSHINE GUOJIAN PHARMACEUTICAL SHANGHAI, published 2021).
Positions count from the first letter of the chain named. Each block holds one binder with its values, some of them ahead of it. Ends that are not written are not given here. * marks the point of attachment. Biotin = O=C1N[C@H]2[C@H](CS[C@H]2CCCCC(=O)*)N1

Tests used:
[1] = target: T1, HER2 on tumor cells with high HER2 expression (breast cancer cells BT474; SKBR3) (human, UniProt P04626 23-1255); assay: FACS on BT474 cells
T1 construct: whole, on cells; Endogenous full-length receptor on human tumor cell lines; also called breast cancer cells BT474 (with high HER2 expression on the cell surface); HER2 in BT474 and SKBR3 cells

[2] = target: T2, 495-510; assay: peptide ELISA
T2 peptide: HTANRPEDECVGEGLA

[3] = target: T3, peptide 3-4, bio-RPEDECVGEGLA (499-510); assay: peptide ELISA
T3 peptide: Biotin-RPEDECVGEGLA

[4] = target: T4, human HER2-ECD protein (1 to 652 amino acids of NP_004439.2, 6xHis tag at the C-terminus) (human, UniProt P04626 23-652); assay: ELISA on coated human HER2-ECD
T4 construct: Homemade, expressed in CHO cells from HER2-ECD-His-pTT5; also called HER2-ECD-His; HER2-ECD-fl(1-652)

[5] = target: T5, peptide 4-7 (D502A), bio-HTANRPEAECVGEGLA; assay: ELISA on alanine scan biotin peptides
T5 peptide: Biotin-HTANRPEAECVGEGLA

[6] = target: T6, peptide 4-10 (V505A), bio-HTANRPEDECAGEGLA; assay: ELISA on alanine scan biotin peptides
T6 peptide: Biotin-HTANRPEDECAGEGLA

[7] = target: T7, peptide 4-11 (E507A), bio-HTANRPEDECVGAGLA; assay: ELISA on alanine scan biotin peptides
T7 peptide: Biotin-HTANRPEDECVGAGLA

[8] = target: T8, peptide 4-12 (L509A), bio-HTANRPEDECVGEGAA; assay: ELISA on alanine scan biotin peptides
T8 peptide: Biotin-HTANRPEDECVGEGAA

[9] = target: T9, peptide 4-1, bio-ATANRPEDECVGEGLA; assay: peptide ELISA, alanine scan
T9 peptide: Biotin-ATANRPEDECVGEGLA

[10] = target: T10, peptide 4-2, bio-HAANRPEDECVGEGLA; assay: peptide ELISA, alanine scan
T10 peptide: Biotin-HAANRPEDECVGEGLA

[11] = target: T11, peptide 4-3, bio-HTAARPEDECVGEGLA; assay: peptide ELISA, alanine scan
T11 peptide: Biotin-HTAARPEDECVGEGLA

[12] = target: T12, peptide 4-4, bio-HTANAPEDECVGEGLA; assay: peptide ELISA, alanine scan
T12 peptide: Biotin-HTANAPEDECVGEGLA

[13] = target: T13, peptide 4-5, bio-HTANRAEDECVGEGLA; assay: peptide ELISA, alanine scan
T13 peptide: Biotin-HTANRAEDECVGEGLA

[14] = target: T14, peptide 4-6, bio-HTANRPADECVGEGLA; assay: peptide ELISA, alanine scan
T14 peptide: Biotin-HTANRPADECVGEGLA

[15] = target: T15, peptide 4-8, bio-HTANRPEDACVGEGLA; assay: peptide ELISA, alanine scan
T15 peptide: Biotin-HTANRPEDACVGEGLA

[16] = target: T16, peptide 4-9, bio-HTANRPEDEAVGEGLA; assay: peptide ELISA, alanine scan
T16 peptide: Biotin-HTANRPEDEAVGEGLA

[17] = target: T17, peptide HA-21, bio-HQALLHTANRPEDECVGEGLA (490-510) (N-terminal biotin); assay: ELISA on biotin peptides of HER2-ECD DIII
T17 peptide: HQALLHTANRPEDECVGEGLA

[18] = target: T18, HER2-ECD-D502A (human, UniProt P04626 23-652); assay: ELISA on coated HER2-ECD-D502A; D502A mutant
T18 construct: Site-directed mutant of HER2-ECD-His-pTT5, expressed in HEK293E

[19] = target: T19, HER2-ECD-E507A (human, UniProt P04626 23-652); assay: ELISA on coated HER2-ECD-E507A; E507A mutant
T19 construct: Site-directed mutant of HER2-ECD-His-pTT5, expressed in HEK293E

[20] = target: T4, human HER2-ECD protein (1 to 652 amino …); assay: ELISA on coated HER2-ECD protein; wild-type HER2-ECD
[21] = target: T20, HER2-ECD-DI-III; assay: Western blot by the method of Example 3.2 (reduced-denatured protein)
T20 construct: Truncated human HER2-ECD construct; also called HER2-ECD-DI-DIII(1-510)
T20 receptor fragment: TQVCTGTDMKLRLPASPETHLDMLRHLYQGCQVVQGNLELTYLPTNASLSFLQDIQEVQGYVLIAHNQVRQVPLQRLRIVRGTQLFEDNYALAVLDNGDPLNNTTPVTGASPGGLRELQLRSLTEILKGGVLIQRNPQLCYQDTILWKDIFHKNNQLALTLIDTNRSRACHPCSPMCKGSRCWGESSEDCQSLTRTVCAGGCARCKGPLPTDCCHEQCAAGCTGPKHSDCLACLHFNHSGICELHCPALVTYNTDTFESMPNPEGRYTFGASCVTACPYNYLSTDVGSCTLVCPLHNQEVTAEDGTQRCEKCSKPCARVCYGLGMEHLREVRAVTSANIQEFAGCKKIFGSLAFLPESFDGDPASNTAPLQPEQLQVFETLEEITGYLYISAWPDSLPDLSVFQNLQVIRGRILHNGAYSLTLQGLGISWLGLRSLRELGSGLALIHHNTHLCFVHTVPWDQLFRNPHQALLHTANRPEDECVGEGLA

[22] = target: T21, HER2-ECD-V505A (human, UniProt P04626 23-652); assay: ELISA on coated HER2-ECD-V505A (printed HER2-ECD-E505A); V505A mutant (printed E505A)
T21 construct: Site-directed mutant of HER2-ECD-His-pTT5, expressed in HEK293E

[23] = target: T4, human HER2-ECD protein (1 to 652 amino …); assay: competitive ELISA on coated human HER2-ECD; competitor: biotinylated 19H6 (10 ng/mL, mixed 1:1)
[24] = target: T4, human HER2-ECD protein (1 to 652 amino …); assay: ELISA on coated human HER2-ECD; chimeric 19H6-ch, FIG. 22 experiment
[25] = target: T22, HER2-ECD protein of rat (rat, UniProt P06494 23-654); assay: ELISA, antigen coated at 0.2 µg/well
T22 construct: extracellular domain; Bought; also called Rat-HER2-ECD

[26] = target: T23, human HER1 protein (human, UniProt P00533 25-645); assay: ELISA, antigen coated at 0.2 µg/well
T23 construct: Bought

[27] = target: T24, human HER3 protein (human, UniProt P21860 20-643); assay: ELISA, antigen coated at 0.2 µg/well
T24 construct: Bought

[28] = target: T25, human HER4 protein (human, UniProt Q15303 26-649, limits assumed); assay: ELISA, antigen coated at 0.2 µg/well
T25 construct: Bought
T25 sequence (looked up): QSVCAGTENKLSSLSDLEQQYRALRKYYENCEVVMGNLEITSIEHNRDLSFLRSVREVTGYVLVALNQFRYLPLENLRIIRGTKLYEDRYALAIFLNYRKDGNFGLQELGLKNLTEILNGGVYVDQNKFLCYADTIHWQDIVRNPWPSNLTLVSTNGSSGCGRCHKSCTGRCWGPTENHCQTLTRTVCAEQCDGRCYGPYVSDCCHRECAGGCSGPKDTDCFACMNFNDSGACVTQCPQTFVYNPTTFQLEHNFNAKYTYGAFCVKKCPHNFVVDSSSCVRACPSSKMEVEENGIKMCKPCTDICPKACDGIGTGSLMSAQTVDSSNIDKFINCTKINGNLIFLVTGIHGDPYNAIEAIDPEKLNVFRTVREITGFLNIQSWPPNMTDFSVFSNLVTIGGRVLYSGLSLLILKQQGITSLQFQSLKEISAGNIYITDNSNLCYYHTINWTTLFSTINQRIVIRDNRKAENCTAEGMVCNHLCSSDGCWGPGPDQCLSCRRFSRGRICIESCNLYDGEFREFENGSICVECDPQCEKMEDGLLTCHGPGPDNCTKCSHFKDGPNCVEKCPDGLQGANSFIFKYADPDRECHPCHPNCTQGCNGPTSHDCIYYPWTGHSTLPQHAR

[29] = target: T26, HER2-ECD protein of cynomolgus monkey (cynomolgus monkey, UniProt A0A2K5WUT7 1-622); assay: ELISA, Cyno-HER2-ECD coated at 0.2 µg/well
T26 construct: extracellular domain; Bought; also called Cyno-HER2-ECD

[30] = target: T4, human HER2-ECD protein (1 to 652 amino …); assay: ELISA on coated human HER2-ECD; humanized 19H6-Hu
[31] = target: T4, human HER2-ECD protein (1 to 652 amino …); assay: Biacore, antibody captured on Protein A chip, HER2-ECD as analyte
[32] = target: T4, human HER2-ECD protein (1 to 652 amino …); assay: ELISA on coated protein labelled HER2 on the sheet (taken as the human HER2-ECD of paragraph 112), positive control of the selectivity assay of Example 7
[33] = target: T4, human HER2-ECD protein (1 to 652 amino …); assay: ELISA on coated human HER2-ECD; humanized 19H6-graft

- EC50 [1]: 1.1 nM
- binding result [2]: binds
- binding result [3]: binds
- EC50 [4]: 0.28 nM
- binding result [5]: no binding
- binding result [6]: no binding
- binding result [7]: no binding
- binding result [8]: binds
- binding result [9]: binds
- binding result [10]: binds
- binding result [11]: binds
- binding result [12]: binds
- binding result [13]: binds
- binding result [14]: binds
- binding result [15]: binds
- binding result [16]: binds
- binding result [17]: binds
- EC50 [18]: 0.05 nM
- EC50 [19]: 0.867 nM
- EC50 [20]: 0.041 nM
- binding result [21]: binds
- EC50 [22]: 0.038 nM
- IC50 (read off the curve) [23]: ~1 nM
B1: murine anti-human HER2 monoclonal antibody 19H6 (antibody, V domains shown)
VH: QVQLQQSGPELVRPGESVKISCKGSGYTFTDYAIHWVKQSHAKSLEWIGVFSIYYENINYNQKFKGKATMTVDKSSSTAYLDLARLTSEDSAIYYCARRDGGTINYWGQGTSVTVSS
VL: DVVMTQTPLSLPVSLGDQASISCRSSQSLVHSNGNTYLHWYLQKPGQSPKLLIYKVSNRFSGVPDRFSGSGSGTDFTLKISRVEAEDLGVYFCSQSTHIPWTFGGGTKLEIK
notes: Hybridoma-derived mouse antibody purified on Protein G; also called murine antibody 19H6

- EC50 [1]: 1.5 nM
- EC50 [4]: 0.1 nM
- EC50 [24]: 0.05 nM
B2: chimeric antibody 19H6-ch (antibody, human IgG1, kappa, V domains shown)
VH: B1 VH
VL: DVVMTQTPLSLPVSLGDQASISCRSSQSLVHSNGNTYLHWYLQKPGQSPKLLIYKVSNRFSGVPDRFSGSGSGTDFTLKISRVEAEDLGVYFCSQSTHIPWTFGGGTKLEIKR
notes: 19H6 variable regions spliced with human IgG1 and kappa constant regions; expressed in HEK-293E

- EC50 [1]: 1.9 nM
- binding result [25]: no binding
- binding result [26]: no binding
- binding result [27]: no binding
- binding result [28]: no binding
- EC50 [29]: 0.1 nM
- EC50 [30]: 0.06 nM
- Kd [31]: 0.713 nM
- koff [31]: 0.000111 s⁻¹
- kon [31]: 155000 M⁻¹ s⁻¹
- EC50 (read off the curve) [32]: ~0.1 nM
B3: humanized antibody 19H6-Hu (antibody, human IgG1, kappa, V domains shown)
VH: QVQLVQSGAEVKKPGASVKVSCKGSGYTFTDYAIHWVRQAPGQSLEWIGVFSIYYENINYNQKFKGRATMTVDKSTSTAYMELRSLRSDDTAVYYCARRDGGTINYWGQGTLVTVSS
VL: B2 VL with T7S, S14T, D17Q, Q18P, L42Q, K44R, K50R, L88V, G105Q, L109V

- EC50 [33]: 0.5 nM
B4: humanized antibody 19H6-graft (antibody, human IgG1, kappa, V domains shown)
VH: B3 VH with G24A, S44G, I48M, A68V, V72T, K74T
VL: DVVMTQSPLSLPVTLGQPASISCRSSQSLVHSNGNTYLHWFQQRPGQSPRRLIYKVSNRFSGVPDRFSGSGSGTDFTLKISRVEAEDVGVYYCSQSTHIPWTFGQGTKVEIKR
notes: Constant regions tied by the words 'The same constant region as that of 19H6-ch'
